US6362319B1, “Glial cell line-derived neurotrophic factor” (Amgen Inc., priority 1991, dated 2002)

Tests used:
Assay type in all cases: cell-based
[1] = tested on: dopaminergic neurons in rat embryo (E16) mesencephalic cell cultures; experiment: Bioassay for dopaminergic neurotrophic activity: 3H-dopamine uptake in dissociated mesencephalic cell cultures; conditions: for FOLD (specific activity relative to B49 conditioned medium): purification fold over CM
Description: The dopaminergic activity of the GDNF is used to facilitate the purification process. […] Briefly, cultures of dissociated mesencephalic cells are prepared, either in serum rich or serum free environments. Samples to be tested for dopaminergic activity are desalted and serially added to the cell cultures and the dishes are incubated for 6 days at 37° C. in a humidified atmosphere containing 6.5% CO2. The cultures, in the presence of the testing material, are then incubated at 37° C. with tritiated dopamine (^3H-DA). The dopamine uptake is halted, the cells washed, and the dopamine uptake analyzed by scintillation counting of retained tritium in the cultures.
Culture conditions: Dissociated mesencephalic cell cultures were prepared as previously described (Friedman and Mytilineou 1987 Neurosci. Lett. 79:65-72), with minor modifications. Briefly, rostral mesencephalic tegmentum from brains of Sprague-Dawley rat embryos, at the 16th day of gestation, were dissected under the microscope in sterile conditions, collected in Ca^2+- and Mg^2+-free Dulbecco's phosphate buffered saline (Gibco, Gaithersburg, Md.) and dissociated mechanically by mild trituration. The cells were plated in 100 μl per well onto 16-mm diameter tissue culture wells (Falcon, Lincoln Park, N.J., 24-well plate) containing 400 μl medium to give a density of 2.5-3.5×10^5 cells per well. The culture wells had been previously exposed to 0.1 mg/ml solution of poly L-ornithine in 10 mM sodium borate, pH 8.4, for 3 hours at 37° C., washed 3 times in milli-Q H2O and once in Earle's balanced salt solution (Gibco). The feeding medium (10/10) consisted of minimal essential medium (MEM, Gibco) supplemented with glucose (33 mM), sodium bicarbonate (24.5 mM), glutamine (2 mM), HEPES (15 mM), penicillin G (5 U/ml), streptomycin (5 μg/ml), 10% heat-inactivated fetal calf serum (Gibco) and 10% heat inactivated horse serum (Gibco). The cultures were kept at 37° C. in a water-saturated atmosphere containing 6.5% CO2. After 3 hours, when most of the cells had adhered to the bottom of the well, the medium was replaced with 500 μl of fresh medium. At this time, a serial dilution of the sample to be assayed for GDNF activity was added to each well in duplicate and the plates were incubated in the 37° C. incubator. After a week, the cultures were treated for 24 hours with fluorodeoxyuridine (13 μg/ml) and uridine (33 μg/ml) to prevent excessive glial proliferation and subsequently fed with the above medium without fetal calf serum. The feeding medium was changed weekly.
Alternatively, chemically defined serum-free medium was used in which serum was replaced by a mixture of proteins; hormones and salts. The defined medium (DM) consisted of a mixture of MEM and F12 nutrient mixture (both Gibco, 1:1; vol/vol) with glucose (33 mM), glutamine (2 mM) NaHCO3 (24.5 mM), HEPES (15 mM), supplemented with transferrin (100 μg/ml), insulin (25 μg/ml), putrescine (60 μM), progesterone (20 nM), sodium selenite (30 nM), penicillin G (5 U/ml) and streptomycin (5 μg/ml). The osmolarity of the DM was adjusted to 325 by the addition of milli-Q H2O. (110-125 ml H2O/l). […] All assays reached in the following examples were done in serum-containing medium.
The functional status of the dopaminergic neurons may be assayed in these cultures by measuring dopamine uptake through specific “scavenger” transporters in the dopaminergic neurons and by counting the number of neurons positive for the dopamine synthetic enzyme tyrosine hydroxylase using immunohistochemistry.

[2] = tested on: parasympathetic nerve cells from chick embryo ciliary ganglia; experiment: Neuronal survival assay (MTT), ciliary ganglia
Description: Cultures of primary check embryo ciliary ganglia and sympathetic chain ganglia were prepared as previously described (Collins 1978 Develop. Biol. 65:50; Manthorpe et al. 1986 Develop. Brain Res. 25:191). Briefly, ciliary or sympathetic ganglia were removed from fertile, pathogen free chicken eggs that had been incubated for 8 and 10 days, respectively, at 38° C. in a humidified atmosphere. […]
Ten μl of a serial dilution of the sample to be assayed for neurotrophic activity was added to each well and the dishes were incubated for 20 hours at 37° C. in a humidified atmosphere containing 7.5% CO2. […] The absorbance of 570 nm was determined relative to a 690 nm reference for each well using an automatic microtiter plate reader (Dynatech, Chantilly, Va.). The absorbance of wells which had not received any neurotrophic agent (negative controls) was substracted from the absorbance of sample-containing wells. The resulting absorbance is proportional to the number of living cells in each well, defined as those nerve cells capable of reducing the dye. […] Specific activity was determined by dividing the number of trophic units by the amount of protein present in the sample.

[3] = tested on: sympathetic neurons from chick embryo sympathetic chain ganglia; experiment: Neuronal survival assay (MTT), sympathetic chain ganglia
Description: Cultures of primary check embryo ciliary ganglia and sympathetic chain ganglia were prepared as previously described (Collins 1978 Develop. Biol. 65:50; Manthorpe et al. 1986 Develop. Brain Res. 25:191). Briefly, ciliary or sympathetic ganglia were removed from fertile, pathogen free chicken eggs that had been incubated for 8 and 10 days, respectively, at 38° C. in a humidified atmosphere. The ganglia were chemically dissociated by exposure first to Hands' Balanced Salt Solution without divalent cations, containing 10 mM HEPES buffer pH 7.2 for 10 min at 37° C., and then by exposure to a solution of 0.125% bactotrypsin 1:250 (Difco, Detroit, Mich.) in Hanks' Balanced Salt Solution modified as above for 12 min at 37° C. Trypsinization was stopped by addition of fetal calf serum to a final concentration of 10%.
After this treatment, ganglia were transferred to a solution consisting of Dulbecco's high glucose Modified Eagle Medium without bicarbonate containing 10% fetal calf serum and 10 mM HEPES, pH 7.2 and were mechanially dissociated by trituration approximately 10 times through a glass Pasteur pipet whose opening had been fire polished and constricted to a diameter such that it took 2 seconds to fill the pipet.
The dissociated ganglia were then plated in culture medium (Dulbecco's Modified Eagle Medium supplemented with 10% fetal calf serum, 4 mM glutamine, 60 mg/L penicillin-G, 25 mM HEPES, pH 7.2) in 100 mm diameter tissue culture dishes (40 dissociated ganglia per dish) for three hours. […] After three hours, the nonadherent nerve cells were collection by centrifugation, resuspended in culture medium, and plated in 50 μl per well onto half area 96 well microtiter tissue culture plates at a density of 1500 nerve cells per well. The microtiter wells had been previously exposed to a 1 mg/ml solution of poly-L-ornithine in 10 mM sodium borate, pH 8.4 overnight at 4° C., washed in distilled water and air dried.
Ten μl of a serial dilution of the sample to be assayed for neurotrophic activity was added to each well and the dishes were incubated for 20 hours at 37° C. in a humidified atmosphere containing 7.5% CO2. After 18 hours for ciliary and 40 hours for sympathetic ganglia, 15 μl per well of a 1.5 mg/ml solution of the tetrasolium dye MTT in Dulbecco's high glucose Modified Eagle Medium without bicarbonate containing 10 mM HEPES, pH 7.2, was added and the cultures placed in the 37° C. incubator for 4 hours. Then, 75 μl of a solution of 6.7 ml of 12 M HCl per liter of isopropanol was added and the contents of each well triturated 30 times to break open the cells and suspend the dye. The absorbance of 570 nm was determined relative to a 690 nm reference for each well using an automatic microtiter plate reader (Dynatech, Chantilly, Va.). The absorbance of wells which had not received any neurotrophic agent (negative controls) was substracted from the absorbance of sample-containing wells. The resulting absorbance is proportional to the number of living cells in each well, defined as those nerve cells capable of reducing the dye. The number of trophic units of neurotrophic activity was defined as the reciprocal of the dilution that gave 50% of maximal survival of nerve cells. Specific activity was determined by dividing the number of trophic units by the amount of protein present in the sample.

B1: glial cell line-derived neurotrophic factor (protein)
chain: SNMPEDYPDQFDDVMDFIQATIKRLKRSPDKQMAVLPRRERNRQAAAANPENSRGKGRRGQRGKNRGCVLTAIHLNVTDLGLGYETKEELIFRYCSGSCDAAETTYDKILKNLSRNRRLVTDKVGQACCRPIAF
notes: dopaminergic neurotrophic protein purified from serum-free conditioned medium of rat B49 glioblastoma cells; disulfide-bonded dimer
In the case of B1, the “bioactivity in dopamine uptake assay” value [1] is reported as “active in stimulating dopamine uptake in both serum-containing and defined media”, the “SP. ACT (specific activity, dopamine uptake trophic units per protein)” value ([1]; TU = reciprocal of dilution giving 50% of maximal stimulation of 3H-DA uptake) is reported as “at least 12,000 TU/μg” and the “concentration for half-maximal stimulation of dopamine uptake” value ([1]; indicated by the specific activity) is reported as “approximately 60 pg/ml”. For the same molecule, the “FOLD (specific activity relative to B49 conditioned medium)” value [1] was “about 24,000”, the “FOLD (specific activity relative to B49 conditioned medium)” value ([1]; listed as substantially purified GDNF) was “at least 24,000” and the estimated specific activity ([1]; purified GDNF after final RP-HPLC) was “about 17 trophic units/ng”. The “ED50 for increasing dopamine uptake” value ([1]; rat embryo (E16) mesencephalic culture) was “about 50 pg/ml”, the “survival of parasympathetic nerve cells” value [2] was “promotes the survival in culture of parasympathetic nerve cells” and the “bioactivity in sympathetic neuron survival bioassay” value [3] was “promotes the survival in culture of symphathetic nerve cells”. For the same molecule, the “ED50 for sympathetic neuron survival” value ([3]; chick embryo (E10) sympathetic ganglia) was “about 5 ng/ml”.
